We go through one substance from article PMC10493288, “Identification and characterization of a novel chromosomal aminoglycoside 3’-O-phosphotransferase, APH(3′)-Id, from Kluyvera intermedia DW18 isolated from the sewage of an animal farm” (Frontiers in Microbiology, 2023).

Holding throughout (assay): purified protein
Type in all cases: biochemical, Kluyvera intermedia
Common to all, as to conditions: 1 mM ATP, 1 mM MgCl2, 2 mM KCl, 100 mM HEPES pH 7.5

In data set [1] the test system is NC[C@H]1O[C@H](O[C@H]2[C@H](O[C@@H]3O[C@H](CO)[C@@H](O)[C@H]3O)[C@@H](O)[C@H](N)C[C@@H]2N)[C@H](N)[C@@H](O)[C@@H]1O.
Data set [2] relates to NC[C@@H]1O[C@H](O[C@H]2[C@@H](O)[C@H](O[C@@H]3[C@@H](O)[C@H](N)C[C@H](N)[C@H]3O[C@H]3O[C@H](CO)[C@@H](O)[C@H](O)[C@H]3N)O[C@@H]2CO)[C@H](N)[C@@H](O)[C@@H]1O.
The subject of data set [3] is NC[C@H]1O[C@H](O[C@H]2[C@H](O)[C@@H](O[C@H]3O[C@H](CO)[C@@H](O)[C@H](N)[C@H]3O)[C@H](N)C[C@@H]2N)[C@H](O)[C@@H](O)[C@@H]1O.

As usually defined, the Km is the concentration of substrate that gives half-maximal velocity. In general, kcat refers to the maximal rate divided by the concentration of active sites. As usually defined, the kcat/Km is the turnover number divided by the Michaelis constant.

As to APH(3′)-Id (Kluyvera intermedia), the results for the Km in data set [1], in data set [2] and in data set [3] were 3.831 ± 1.57 µM, 12.19 ± 1.56 µM and 10.04 ± 2.95 µM, respectively. Besides, the kcat in data set [1] worked out at 1.73 ± 0.023 s⁻¹; in data set [2], 2.64 ± 0.072 s⁻¹; in data set [3] it was 1.06 ± 0.114 s⁻¹. In addition, the kcat/Km was 496000 ± 163000 M⁻¹ s⁻¹ in data set [1], 218000 ± 21000 M⁻¹ s⁻¹ in data set [2] and 110000 ± 18000 M⁻¹ s⁻¹ in data set [3].
